From the nanobody polyreactivity screen of Harvey et al. (2022) come the findings set out here.

This data set in a line: yeast display, Sf9 membrane polyspecificity reagent, FACS + sequencing; frameworks hold sequencing errors. The procedure, abridged:
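Polyreactivity labels are assigned by the sorting gate from which each nanobody was recovered. The gates were low and high (top ~1%), set on anti-HA fluorescence for expression and streptavidin fluorescence for reagent binding. Before sorting, galactose-induced (36–48 hours) yeast display cells were stained for 1 hour at 4 °C with 10% biotinylated, detergent-solubilized Sf9 membrane reagent.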
With “QVQLVESGGGLVQAVGSLRLSCAASGRTFWANTMGWYRQAPGKERELVAAISKRGGSTYYADSVKGRFTISRDNAKNTVYLQMNSLKPEDTAVYYCNADKSGWYDYWGQGTQVTVSS”, the “polyreactivity (PSR sort gate)” value is on record as “high polyreactivity”.

Turning to “QVQLVESGGGLVQAVGSLRLSCAASGRTIAGYTMGWYRQARGQERELVAAISGRGGSTYYADSVKGRYTISRDNAKNTVYLQMNSLKPEDTAVYYCAAYTQGYWGRGRYGYCGQGTQVTVSS”, the “polyreactivity (PSR sort gate)” value is “high polyreactivity”. Take “QVQLVESGGGLVQAVGSLRLSCAASGRTSPRNAMGWYRQAPGKERELVAAINRTGGTTYYSDSVKGRFTISRDNAKNTVYLQMNSLIPEDTAVYYCAADVWVSTSGDWFRYDYWGQGTQVTVSS”: the “polyreactivity (PSR sort gate)” value is given as “high polyreactivity”. On to “QVQLVESGGGLVQAVGSLRLSCAASGSIFPDNAMGWYRQAPRKERELVASISWSGGSTYYADSVKGRFTISRDNAKNPVYLQRNSLKPEDTAVYYCARTYYWYLRVDYWGQGTQVTVSS”, for which the “polyreactivity (PSR sort gate)” value is “low polyreactivity”. To “QVQLVESGGGLVQAVGSLRLSCAASGSIFTPYAMGWYRQAPGKERELVAAISGSGGSTRYADSVKGRFTISRDNATNTVYLQMNSLKPEDTAVYYCAADRYTYIWYHIYDYWGQGTQVTVSS” belongs “low polyreactivity”.

For “QVQLVESGGGLVQAVGSLRLSCAASGSTFREYTMGWYRQAPGKERELVAAITNSGGSTYYADSVKGRFTISRDNAKNTVYLQMNSLKPEDTAVYYCAAEGRYFYFTVKMDYWGQGTQVTVSS”, the “polyreactivity (PSR sort gate)” value is reported as “low polyreactivity”. “QVQLVESGGGLVQAVGSLRLSCAASGSTFWFNAMGWYRQAPGKERELVAAIPSRGGYTYYADSVKGRFTISRDNAKNTVYLQMNSLKPEDTAVYYCAADYRYSSRKVFHFDYWGQGTQVTVSS”: the “polyreactivity (PSR sort gate)” value was “low polyreactivity”. In the case of “QVQLVESGGGLVQEGASLRLICAASGRTSYRYAMGWNRQAPGKERELVAAISFGGGSTYYADSVKGRFTISRDYAKNTVYLQMNSLKPEDTAVYYCATDRVKYRNIYTDTGFDYWGQGTQVTVSS”, the “polyreactivity (PSR sort gate)” value was “high polyreactivity”. To “QVQLVESGGGLVQEGGSLRLSCAASASIFRYNAMGWYRQAPGKERELVAAITSRDGSTYYADSVKGRFTISRDNAQNTVYFQMNSLKPEDTAVYYCAVQPDSGNYDSGIYDRVGMDYWGQGTQVTVSS” belongs “low polyreactivity”; to “QVQLVESGGGLVQEGGSLRLSCAASGFIFAWYDMGWYRQAPGKERELVAAISYYGGSTYYADSVKGRFTISRDNAKNTVYLQMNSLKPVDTAVYYCIKVSRGGSYGDAFDYWGQGTQVTVSS”, “high polyreactivity”; to “QVQLVESGGGLVQEGGSLRLSCAASGFIFRYYAMGWYRQAPGKERELVAAISSSGGSTYYADSVKGRFTISRDNAKNTVYLQMNSLKPEDTAVSYCNAYNYGYIGYGYNYWGQGTQVTVSS”, “high polyreactivity”. For the sequence “QVQLVESGGGLVQEGGSLRLSCAASGFTFVSNAMGWYRQAPGKERELVAAITYSGTRTYYADSVKGRFTISRDNAKTTVYLQMNSLKPEDTAVYYCAARRGYASAYYYWGQGTQVTVSS”, the “polyreactivity (PSR sort gate)” value is “high polyreactivity”. To “QVQLVESGGGLVQEGGSLRLSCAASGFTLHVYAMGWYRQAPGKERELVAAISTGGNTNYADSVKGRFTISRDNAKNTVYLQMNSLKPEDTAVYYCNARYTSRRSRRPYYYWGQGTQVTVSS” belongs “high polyreactivity”; to “QVQLVESGGGLVQEGGSLRLSCAASGITFAFYTMGRYRQAPGKERELVAAISYSGGRTYYADSVKGRFTISRDNAMNTVYLQMNSLKAEDTAVYYCAVETWWDYDYWGQGTQVTVSS”, “high polyreactivity”; to “QVQLVESGGGLVQEGGSLRLSCAASGITFSVYTMGRYRQAPGKERELVASITRTGGSTYYADSVKGRFTISRDNAKNTVYLQMNSLNPEDTAVYYCAARRTVVTGRYYWGQGTQVTVSS”, “high polyreactivity”. To “QVQLVESGGGLVQEGGSLRLSCAASGLIFGRYAMGWYRQAPGKERELVAAISSSGVRTYYADSVKGRFTISRDNAKNTVYLQMNSLKPEDTAVYYCAAAYWSSRDDTVIKRYYWGQGTQVTVSS” belongs “high polyreactivity”. The entry for “QVQLVESGGGLVQEGGSLRLSCAASGLTFLNNAMGWYRPAPGKERELVAAISDGGSTNYADSVKGRFTISRDNAKNTVYLQMNSMKRDDTAVYYCAAVYTSASYGSWGQGTQVTVSS” is “low polyreactivity”. Turning to “QVQLVESGGGLVQEGGSLRLSCAASGNTFKYYSMGWYRQAPGKERELVAAITWNGARTYYADSVKGRFTISRDNAKNTVYLQMNSLKPEDTAVYYCNARQGYRFDYWGQGTQVTVSS”, the “polyreactivity (PSR sort gate)” value was “high polyreactivity”. “QVQLVESGGGLVQEGGSLRLSCAASGRIFGVNAMGWYRQAPGKERELVAAIFSGGSTYYADSVKGRFTISRDNAKNTVYLQMNSLKPEDTAVYYCAARFARYDWSMYYWGQGTQVTVSS”: the “polyreactivity (PSR sort gate)” value is reported as “low polyreactivity”.

Turning to “QVQLVESGGGLVQEGGSLRLSCAASGRNFDVYAMGWYRQAPGKERELVAAITWDGGSTYYADSVKGRFTISRDNAKNSVYLQMNSEKPEDKAVYYCAAEPVYTQRKGYDYWGQGTQVTVSS”, the “polyreactivity (PSR sort gate)” value was “low polyreactivity”.

Turning to “QVQLVESGGGLVQEGGSLRLSCAASGRTFWYYGMGWYRQAHGKERELVAAISRSGGRTSYADSVKGRFTISRDNAKNTVYLQMIRLKPEDTAVYYCATDGYYRYGYWGQGTQVTVSS”, the “polyreactivity (PSR sort gate)” value is “high polyreactivity”. As for “QVQLVESGGGLVQEGGSLRLSCAASGRTICLNDMGWYRQAPGKERELVAGITRSGGSTYYADSVKGRFTISRDNAKNTVYLQMNSLKPEDSAVYYCAADFKPLYYDEYDYWGQGTQVTVSS”, the “polyreactivity (PSR sort gate)” value is “low polyreactivity”.

Turning to “QVQLVESGGGLVQEGGSLRLSCAASGSIFFYYAMGWYRPAPGKERELVAAIRSGTSTNYADSVKGRFTISLDNAKNTVYLQMNSLKPEDTAVYYCNKDTDWSWSAITSPIFDYWGQGTQVTVSS”, the “polyreactivity (PSR sort gate)” value is “low polyreactivity”.

In the case of “QVQLVESGGGLVQEGGSLRLSCAASGSIFGRNAMGWYRQAPGKERELVAAITSRTGSTFYADSVKGRFTISRDNAKNTDYLQMNSLKPEATAVYYCKAAGPAFSYYHWLWGDYNSWGQGTQVTVSS”, the “polyreactivity (PSR sort gate)” value is “low polyreactivity”. To “QVQLVESGGGLVQEGGSLRLSCAASGSIFGWYAMGWYRQAPGKEWELVAAIRRGGSTNYADSVKGRFTISRDNAKNTVYLQMNSLKAEVTAVYYCAAGKSGYSKRIFRYSFDYWGQGTQVTVSS” belongs “high polyreactivity”; to “QVQLVESGGGLVQEGGSLRLSCAASGSIFVNNGMGWYRQAPGKERELVAAIRLSTGSTYYADSVKGRFTISRDNAKNTVYLQMNSLKPEDTAVYFCNAVRYPRLMYYWGQGTQVTVSS”, “high polyreactivity”; to “QVQLVESGGGLVQEGGSLRLSCAASGSSFCSYAMGRYRQAPGKERELVAAISSSGDSTYADSVKGRFTMSRDNAKNTVYLQMNSLKPEDTAVYYCAVGGAGSDDYWGQGTQVTVSS”, “low polyreactivity”.

As for “QVQLVESGGGLVQEGGSLRLSCAASGSTFNAYAMGWYRQAPGKERELVATINDDGGTTYYADSVKGRFTISRDNAKNTVYLQMNSLKPEDTAVYYCAASGFDTSYETAPSDSWGYDYWGQGTQVTVSS”, the “polyreactivity (PSR sort gate)” value is given as “low polyreactivity”. With “QVQLVESGGGLVQEGGSLRLSCAASGSTFRYYAMGWYRQAPGKERELVASISSSGGNTYGDAVKGRFTISRDNAKNTVYLQMNSLKPEDTAVYYCNADWALLYSPPYTYRYGYWGQGTQVTVSS”, the “polyreactivity (PSR sort gate)” value is “low polyreactivity”. The entry for “QVQLVESGGGLVQEGGSLRLSCAASGSTFSIYAMGWYRQAPGKERELVAGISGSGGSTYYADSVKGRFTISRDNAKNTVYLQMNSLKPEDTAVYYCAKRVLWGLDYCGQGTQVTVSS” is “low polyreactivity”; for “QVQLVESGGGLVQEGGSLRLSCAASGYTFGRYFMGWYRQAPGKEREFVAAISRGGGSTYYADSVKGRFTISRDNAKNTVYLQMNSLKPEDTAVYYCDTRSSNAEYWGQGTQVTVSS” it is “high polyreactivity”; for “QVQLVESGGGLVQEGGSLRLSCASSGGIFDTNAKGWYRQARGKDREFVAAITGSGGSTYYADSVKGRFTISRDNAKNTVYLQMNSLIPEDTAVYYCAAPLSYYWVYIVRDGYDYWGQGTQVTVSS” it is “low polyreactivity”. In the case of “QVQLVESGGGLVQEGGSLRLSCSASGSIFYVYAMGRYRPARGKDRELVAAISSIDGNTYYADSVKGRFTISRDNAKNTVYLQMNSLKPEETAVYYCAAAYYNTDYYYWGKGTQVTVSS”, the “polyreactivity (PSR sort gate)” value is on record as “low polyreactivity”. With “QVQLVESGGGLVQEGGSLRLTCAASGSTFIGNAMGGYRQAPGKERELVAAITSSGGSTYYADSVKGRFTISRDNAKNTVYLQMNSLKPEDTALYYCAAKTWARGHYGYQARSNYWGQGTQVTVSS”, the “polyreactivity (PSR sort gate)” value is given as “high polyreactivity”. With “QVQLVESGGGLVQERGSLRLSCADSGFIFWYYAMGWDRQAPGKERELVAAISWSGDSTYYADSVKGRFTISRDNANNTVYLQMKSLKPEYTAVYYCAVYEELDVFYNGYDYWGQGTQVTVSS”, the “polyreactivity (PSR sort gate)” value is given as “high polyreactivity”. Consider “QVQLVESGGGLVQGGGSLRLSCAASGGTIGRNAMGWYRQAPGKERELVANITRRGGSTYYADSVKGRFTISRDNAKNTVYLQMNSLKAEDTAVYYCAARDVYRGGLFDYWGQGTQVSVSS”, for which the “polyreactivity (PSR sort gate)” value is reported as “high polyreactivity”. To “QVQLVESGGGLVQGGGSLRLSCAASGITFCQYAMRWYRQAPGKERELVAGIRFSGSTTYYADSVKGRFTISRDYAKITVYLQMNSLKPEDTAVYDCNVDYYSGLYYYDSWGQGTQVTVSS” belongs “low polyreactivity”; to “QVQLVESGGGLVQGGGSLRLSCAASGRIFKYYAMGWYRQAPGKERELVADISWRGGSTYYADSVKGRFTISRDNAKNTVYLQMNCLKPEDTAVYYCNAVSPRPGFDWGQGTQVTVSS”, “high polyreactivity”; to “QVQLVESGGGLVQGGGSLRLSCAASGRIFTFYAMGWSRPAPGKARELVASITGGGNTYYADSVKGRFTISRDNAKNTVNLQMNSLKPEDTAVYYCAADDGYRELDYWGQGTQVTVSS”, “low polyreactivity”. Take “QVQLVESGGGLVQGGGSLRLSCAASGRIGKYAMGWYRQAPGKERELVATISSTGTTNYADSVKGRFTISRDNAKNTVYLQMNSLKPEDTAVYYCAARWEYVGYRRRYYRFDYWGQGTQVTVSS”: the “polyreactivity (PSR sort gate)” value is listed as “high polyreactivity”.
